Reference: patent US12558403B2, “Anti-tumor fusion protein, preparation method therefor and application thereof” (GUANGDONG TAIHE MEDICINE SCIENCE & TECHNOLOGY CO., LTD, priority 2020, dated 2026)
Marks after values point to notes of the source that are not given here.

Legend:
lung cancer cells H460 = test: Killing of tumor cells by stimulated T cells, CytoTox 96 non-radioactive cytotoxicity assay; settings: T cells stimulated with 40 μg/mL for 4 days, effector-target ratio 20:1
Protocol: CytoTox 96 non-radioactive cytotoxicity assay was used to detect the killing effect of L1, L2, D1 and D2 polypeptides (40 μg/mL) on lung cancer cells H460 after stimulating human T lymphocytes for 4 days, respectively.

[1] = test system: breast cancer cell line MDA-MB-231; test: as above; assay type: cell-based, human; settings: effector-target ratio 30:1
Protocol: (§1) Three protein concentrations (20 μg/mL, 40 μg/mL, 80 μg/mL) of TAT-SHP2-N-SH2 fusion protein were selected to stimulate human T lymphocytes and the killing effect on tumor cells MDA-MB-231 and SW480, respectively at an effector-target ratio of 30:1 was detected by CytoTox 96 non-radioactive cytotoxicity assay.

[2] = test system: colon cancer cell line SW480; test: as above; assay type: cell-based, human; settings: effector-target ratio 30:1
Protocol: as §1

T lymphocytes [3] = test: T lymphocyte proliferation detected by CFSE; assay type: cell-based; settings: 80 μg/mL, 3 days, control group 62.83%
Protocol: Compared with the control group, p>0.05 has no statistical significance.
To test whether recombinant TAT-N-SH2 fusion protein and L1 (TAT-SHP2-C-SH2) polypeptide can enhance the proliferation of T lymphocytes, we used 80 μg/mL TAT-SHP2-N-SH2 fusion protein and TAT-SHP2-C-SH2 polypeptide to stimulate T lymphocytes for 3 days, respectively, the proliferation of T lymphocytes was detected by CFSE.

T lymphocytes [4] = test: T lymphocyte apoptosis, Annexin V-FITC/PI flow cytometry; assay type: cell-based; settings: 80 μg/mL, 3 days, PD-L1 coated plate, compared with control group
Protocol: The resuspended cells are added to different groups to treat untreated groups SHP2-NC, SHP2-N-SH2 (80 μg/mL), TAT-SHP2-C-SH2 polypeptide (80 μg/mL), and then continues to culture on EASY-T stimulated plates for 3 d (50 ng of PD-L1 antibody is added 3 hours before adding the cell mixture to coat a 24-well plate at 37° C.), and the cells are collected, detection by flow cytometry after FITC and PI staining; e According to the results of flow cytometry, the proportion of apoptotic cells is counted, compared with the control group, *p<0.05 or **p<0.01.
T lymphocytes were stimulated with recombinant TAT-N-SH2 fusion protein and L1 polypeptide for 3 days and the apoptosis of T lymphocytes in different treatment groups was detected by flow cytometry. […] FIG. 13e, according to the results of flow cytometry, the proportion of apoptotic cells was counted, compared with the control group, *p<0.05 or **p<0.01.

ERK, AKT and JNK = test: Phosphorylation of ERK, AKT and JNK in T lymphocytes, Western-blot; assay type: cell-based; settings: T lymphocytes stimulated 3 days, compared with untreated group
Protocol: TAT-SHP2-N-SH2 fusion protein treatment group; c. TAT-SHP2 C-SH2 polypeptide treatment group; b, d. According to Western-blot results, with β-actin as an internal reference, grayscale analysis of the phosphorylation expression of JNK, AKT and ERK proteins mediated by T lymphocytes is performed. Unpaired t-test, compared with negative control, **p<0.01, NS has no statistical difference.
The T lymphocytes stimulated by recombinant TAT-N-SH2 fusion protein and L1 (TAT-SHP2-C-SH2) polypeptide for 3 days were collected to detect the changes in the phosphorylation levels of ERK, AKT and JNK molecules.

IL-2 = test: Cytokine IL-2 secreted by T lymphocytes; assay type: cell-based; settings: T lymphocytes stimulated 3 days, compared with control group
Source text: The T lymphocytes stimulated by recombinant TAT-N-SH2 fusion protein and L1 polypeptide for 3 days were collected to detect the level of cytokine IL-2 secreted.

MDA-MB-231 = test: Direct killing of tumor cells, zenCell owl live cell imaging; assay type: cell-based; settings: 20, 40, 80 μg/mL, no T cells
Protocol: (§2) In order to detect whether the recombinant TAT-N-SH2 fusion protein and L1 polypeptide have direct killing effect on tumor cells, we co-cultured different concentrations (20 μg/mL, 40 μg/mL, 80 μg/mL) of recombinant TAT-N-SH2 fusion protein and L1 polypeptide with tumor cells MDA-MB-231 and SW480, and applied zenCell owl live cell dynamic imaging analysis system to observe its effect on tumor cells in real time.

SW480 = test: as above; assay type: cell-based; settings: 20, 40, 80 μg/mL, no T cells
Protocol: as §2

MC38 colon cancer [5] = test: MC38 colon cancer mouse subcutaneous tumor-bearing model; assay type: in vivo, mice
Source text: A subcutaneous tumor model of MC38 colon cancer mice was established.

EMT breast cancer = EMT breast cancer mouse subcutaneous tumor-bearing model; assay type: in vivo, mice
Protocol: Tumor weight of mice in different administration groups after 21 d dissection; b. Tumor size; Unpaired t-test, compared with control group, *p<0.05, **p<0.01, ***p<0.001.
We further evaluated the effects of TAT-SHP2SHP2-N-SH2 fusion protein and TAT-SHP2SHP2-C-SH2 polypeptide on tumor growth in mice by establishing a subcutaneous tumor-bearing model of EMT breast cancer mice. We used TAT-SHP2SHP2-C-SH2 polypeptide at 5 μg/mouse (C5), 10 μg/mouse (C10), 15 μg/mouse (C15) and 2 μg/mouse (N2), 5 μg/mouse (N5), 10 μg/mouse (N10), 15 μg/mouse (N15) of TAT-SHP2SHP2-N-SH2 fusion protein were administered by intraperitoneal injection and at the same time, the dose of 50 μg/mouse αPD-1 antibody (αPD-1) was used as the positive control drug.

MC38 colon cancer [6] = test: MC38 colon cancer in immunodeficient nude mice; assay type: in vivo
Source text: Tumor weight of mice after 30 d dissection; b. Tumor size; c. Tumor growth curve; Unpaired t-test, compared with control group, NS: no statistical difference.
In order to exclude the direct inhibitory effect of recombinant TAT-N-SH2 fusion protein and L1 (TAT-SHP2-C-SH2) polypeptide on tumors, we selected immunodeficient nude mice to inoculate MC38 colon cancer tumors, and started administration 14 days after tumor formation, 4 days to measure the tumor volume, after 30 days, the mice were sacrificed for dissection, and the tumor weight was measured.

EMT-6 breast cancer = EMT-6 breast cancer in immune-deficient nude mice; assay type: in vivo; settings: groups C5/N5, once every other day, 8 doses
Source text: Tumor weight of mice after 21 d dissection; b. Tumor size; c. Tumor growth curve; NS: no statistical difference.
At the same time, we selected immune-deficient nude mice to inoculate EMT-6 breast cancer tumors. After 5 days of tumor formation, they were randomly divided into three groups with 6 mice in each group. Start the administration, the administration dose is the same as above, administered once every other day for a total of 8 doses, 4 days to measure tumor size, the growth curve was drawn, and the mice were sacrificed to measure the body weight on day 21.

PD-L1-KO-EMT6 = test: PD-L1 knockout EMT-6 breast cancer xenografts in BALB/c mice; assay type: in vivo
Source text: Tumor weight of mice after 23 d dissection; b. Tumor size; c. Tumor growth curve; Unpaired t-test, compared with control group, *P<0.05, **P<0.01, ***P<0.001.
Recombinant TAT-N-SH2 fusion protein and L1 (TAT-SHP2-C-SH2) polypeptide target the ITIM motif of inhibitory receptors. […] To this end, we constructed a breast cancer EMT-6 cell line stably knocked out PD-L1 (PD-L1-KO-EMT6), inoculated into the mouse mammary fat pad, and the recombinant TAT-N-SH2 fusion protein (N5) and TAT-SHP2-C-SH2 polypeptide (C5) were administered by intraperitoneal injection at 5 μg/mouse, respectively and at the same time, a dose of 50 μg/mouse αPD-1 antibody (αPD-1) was used as the control drug.

[7] = T cells stimulated with 20 μg/ml
[8] = T cells stimulated with 40 μg/ml
[9] = T cells stimulated with 80 μg/ml
[10] = Table 4, 1.25 μg/mouse intraperitoneal, 8 administrations
[11] = Table 4, 2.5 μg/mouse intraperitoneal, 8 administrations
[12] = Table 4, 5 μg/mouse intraperitoneal, 8 administrations
[13] = Table 4, 10 μg/mouse intraperitoneal, 8 administrations
[14] = Table 5, 5 μg/mouse intraperitoneal

CC(C)C[C@@H](NC(=O)[C@H](NC(=O)[C@@H](Cc1ccccc1)NC(=O)[C@@H](CC(=O)O)NC(=O)CNC(=O)[C@H]1CCCN1C(=O)[C@@H](Cc1c[nH]cn1)NC(=O)[C@@H](CO)NC(=O)[C@@H](CCC(N)=O)NC(=O)[C@@H](CO)NC(=O)[C@@H](CCC(=O)O)NC(=O)[C@@H](CCCNC(=N)N)NC(=O)[C@H](NC(=O)[C@H]1CCCN1C(=O)[C@H]1CCCN1C(=O)[C@@H](CCCNC(=N)N)NC(=O)[C@@H](CCCNC(=N)N)NC(=O)[C@@H](CCCNC(=N)N)NC(=O)[C@@H](CCC(N)=O)NC(=O)[C@@H](CCCNC(=N)N)NC(=O)[C@@H](CCCNC(=N)N)NC(=O)[C@@H](CCCCN)NC(=O)[C@@H](CCCCN)NC(=O)[C@@H](CCCNC(=N)N)NC(=O)CNC(=O)[C@H](N)Cc1ccc(O)cc1)C(C)C)C(C)C)C(=O)O [D1]
Cytotoxicity (%) (lung cancer cells H460): 39.43 ± 1.31 %

CC(C)C[C@H](NC(=O)[C@@H](NC(=O)[C@H](Cc1ccccc1)NC(=O)[C@H](CC(=O)O)NC(=O)CNC(=O)[C@@H]1CCCN1C(=O)[C@H](Cc1c[nH]cn1)NC(=O)[C@H](CO)NC(=O)[C@H](CCC(N)=O)NC(=O)[C@H](CO)NC(=O)[C@H](CCC(=O)O)NC(=O)[C@H](CCCNC(=N)N)NC(=O)[C@@H](NC(=O)[C@@H]1CCCN1C(=O)[C@@H]1CCCN1C(=O)[C@H](CCCNC(=N)N)NC(=O)[C@H](CCCNC(=N)N)NC(=O)[C@H](CCCNC(=N)N)NC(=O)[C@H](CCC(N)=O)NC(=O)[C@H](CCCNC(=N)N)NC(=O)[C@H](CCCNC(=N)N)NC(=O)[C@H](CCCCN)NC(=O)[C@H](CCCCN)NC(=O)[C@H](CCCNC(=N)N)NC(=O)CNC(=O)[C@@H](N)Cc1ccc(O)cc1)C(C)C)C(C)C)C(=O)O [L1, YGRKKRRQRRR-PP-VRESQSHPGDFVL]
Cytotoxicity (%) MDA-MB-231 [1, 7]: 5.933 ± 3.955^ns %
Cytotoxicity (%) MDA-MB-231 [1, 8]: 20.55 ± 1.157 %
Cytotoxicity (%) MDA-MB-231 [1, 9]: 34.8 ± 7.424 %
Cytotoxicity (%) SW480 [2, 7]: 20.24 ± 8.943^ns %
Cytotoxicity (%) SW480 [2, 8]: 31.38 ± 3.779 %
Cytotoxicity (%) SW480 [2, 9]: 40.19 ± 8.373 %
Cytotoxicity (%) (lung cancer cells H460): 33.23 ± 2.32 %

B1: TAT-SHP2-N-SH2 fusion protein: TAT penetrating peptide connected to N-terminal SH2 domain of SHP2 through glycine and serine (TAT-Gly-Ser-N-SH2); SEQ ID NO.:4 (protein)
chain: YGRKKRRQRRRGSRWFHPNITGVEAENLLLTRGVDGSFLARPSKSNPGDFTLSVRRNGAVTHIKIQNTGDYYDLYGGEKFATLAELVQYYMEHHGQLKEKNGDVIELKYPLN
modifications: the fusion protein
proliferation rate of T lymphocytes (T lymphocytes [3]): 61.05%
apoptosis of T lymphocytes (T lymphocytes [4]): significantly decreased
phosphorylation levels of ERK, AKT and JNK (ERK, AKT and JNK): the expression levels of p-ERK and p-AKT in the TAT-SHP2-N-SH2 fusion protein stimulation group have the most obvious changes
level of IL-2 secreted by T lymphocytes (IL-2): significantly increased
direct toxic effect on tumor cells (MDA-MB-231): no direct toxic effect
direct toxic effect on tumor cells (SW480): no direct toxic effect
Cytotoxicity (%) MDA-MB-231 [1, 7]: 15.11 ± 6.483^ns %
Cytotoxicity (%) MDA-MB-231 [1, 8]: 12.55 ± 3.037 %
Cytotoxicity (%) MDA-MB-231 [1, 9]: 21.78 ± 3.021 %
Cytotoxicity (%) SW480 [2, 7]: 23.51 ± 1.432 %
Cytotoxicity (%) SW480 [2, 8]: 44.42 ± 5.78 %
Cytotoxicity (%) SW480 [2, 9]: 50.64 ± 2.068 %
Tumor inhibition rate % (MC38 colon cancer [5]; [10]): 55.3%
Tumor weight (MC38 colon cancer [5]; [10]): 0.36 ± 0.11 g
Tumor inhibition rate % (MC38 colon cancer [5]; [11]): 53.5%
Tumor weight (MC38 colon cancer [5]; [11]): 0.38 ± 0.11 g
Tumor inhibition rate % (MC38 colon cancer [5]; [12]): 80.9%
Tumor weight (MC38 colon cancer [5]; [12]): 0.16 ± 0.03 g
Tumor inhibition rate % (MC38 colon cancer [5]; [13]): 57.8%
Tumor weight (MC38 colon cancer [5]; [13]): 0.34 ± 0.08 g
Tumor inhibition rate % (MC38 colon cancer [5]; [14]): 77.1%
Tumor weight (MC38 colon cancer [5]; [14]): 0.26 ± 0.07 g
Tumor inhibition rate % (EMT breast cancer; 2 μg/mouse intraperitoneal): 54.9%
Tumor weight (g) (EMT breast cancer; 2 μg/mouse intraperitoneal): 0.56 ± 0.11* g
Tumor inhibition rate % (EMT breast cancer; 5 μg/mouse intraperitoneal): 70.3%
Tumor weight (g) (EMT breast cancer; 5 μg/mouse intraperitoneal, dissection after 21 d): 0.37 ± 0.10** g
Tumor inhibition rate % (EMT breast cancer; 10 μg/mouse intraperitoneal): 63%
Tumor weight (g) (EMT breast cancer; 10 μg/mouse intraperitoneal): 0.46 ± 0.12** g
Tumor inhibition rate % (EMT breast cancer; 15 μg/mouse intraperitoneal): 47.9%
Tumor weight (g) (EMT breast cancer; 15 μg/mouse intraperitoneal): 0.64 ± 0.15* g
Tumor inhibition rate % (MC38 colon cancer [6]; groups C5/N5): 9.9%
Tumor weight (g) (MC38 colon cancer [6]; groups C5/N5, sacrificed after 30 days): 0.25 ± 0.06^ns g
Tumor inhibition rate % (EMT-6 breast cancer): 8.3%
Tumor weight (g) (EMT-6 breast cancer; day 21): 0.82 ± 0.13^ns g
Tumor inhibition rate % (PD-L1-KO-EMT6; 5 μg/mouse intraperitoneal): 60.5%
Tumor weight (g) (PD-L1-KO-EMT6; 5 μg/mouse intraperitoneal, dissection after 23 d): 0.34 ± 0.20** g
effect on growth of PD-L1-KO-EMT6 tumors (PD-L1-KO-EMT6; N5 and C5 5 μg/mouse, αPD-1 antibody 50 μg/mouse): significantly inhibit the growth of PD-L1-KO-EMT6 tumors
